Results on 83 variants are retold here after the RNAGym collection of RNA variant scans (doi:10.1073/pnas.2313332121).

B1: TPR t1 (parent)
chain: GACCAAUCUGCCCUCAGAGCUCGAGAACAUCUUCGGAUGCAGAGGAGGCAGGCUUCGGUGGCGCGAUAGCGCCAACGUCCUCAACCUCCAAUGCAUCCCACCACAUGAUGAUGCCUGAAGAGCCUUGGUUUUUUG

The variants in the data set derive from B1. Kind of data set: polymerase ribozyme fitness, log enrichment relative to wild type (log ratio); higher = more active; in vitro selection for triplet polymerase activity. In outline: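 A heterodimeric triplet polymerase ribozyme had each of its subunits mutagenized by PCR into a library, which was transcribed. One round of in vitro selection, done in triplicate, annealed each library with a biotinylated primer, its partner subunit and triplets, then incubated it frozen at −7 °C before gel excision of extended constructs, streptavidin-bead capture and RT-PCR. Fitness is the logarithm of genotype enrichment relative to wild-type enrichment, based on Illumina sequencing of inputs and outputs and inverse-variance-weighted replicate averages. A base-2 logarithm is used, and genotypes were kept only with ≥10 input reads and ≥1 read per output.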
For C40U A41C G71A, the “polymerase ribozyme fitness (log ratio)” value was -2.9.

For the variant A2U G120C G135A, the “polymerase ribozyme fitness (log ratio)” value amounted to 0.456.

For the variant G52A G57A G127C, the “polymerase ribozyme fitness (log ratio)” value is -2.09.

For the variant C8G C70G, the “polymerase ribozyme fitness (log ratio)” value was -1.84.

With A91U G128U, the “polymerase ribozyme fitness (log ratio)” value is -3.95.

Regarding U59G C85U G113A, the “polymerase ribozyme fitness (log ratio)” value was -1.67.

For the variant C31U A37U, the “polymerase ribozyme fitness (log ratio)” value was -4.07.

Consider C11G C49A G52U U131A, for which the “polymerase ribozyme fitness (log ratio)” value was -1.34.

On to U14A U21G, for which the “polymerase ribozyme fitness (log ratio)” value was -1.66.

Consider C15G A37C C73G G120C G128U, for which the “polymerase ribozyme fitness (log ratio)” value was -4.14.

Regarding A6G G63U C73G C102A G110U C115G, the “polymerase ribozyme fitness (log ratio)” value was -6.75.

Turning to A6U G113U, the “polymerase ribozyme fitness (log ratio)” value was -2.09.

On to A84G U106G, for which the “polymerase ribozyme fitness (log ratio)” value was -3.32.

Turning to U9C G60U U109G C114G, the “polymerase ribozyme fitness (log ratio)” value is -3.95.

Take A105U U116C: the “polymerase ribozyme fitness (log ratio)” value is -3.7.

With A37C A46C C124G, the “polymerase ribozyme fitness (log ratio)” value worked out at 0.609.

With C73G G120C G128U, the “polymerase ribozyme fitness (log ratio)” value was -1.34.

For G51A C86U, the “polymerase ribozyme fitness (log ratio)” value is -3.18.

Regarding U33C C70G, the “polymerase ribozyme fitness (log ratio)” value was -6.4.

For U7C A50U C82U, the “polymerase ribozyme fitness (log ratio)” value is -0.98.

As for G71A U133G, the “polymerase ribozyme fitness (log ratio)” value is -0.389.

Turning to C49U G113U G117U, the “polymerase ribozyme fitness (log ratio)” value was -5.67.

Consider C28A G93C G110A, for which the “polymerase ribozyme fitness (log ratio)” value was -0.645.

With G71C U81G C97U U106A G120A, the “polymerase ribozyme fitness (log ratio)” value was -3.76.

Take U54A C94A: the “polymerase ribozyme fitness (log ratio)” value is -1.16.

Consider G47A U112A, for which the “polymerase ribozyme fitness (log ratio)” value was -0.273.

As to U109G A118G, the “polymerase ribozyme fitness (log ratio)” value was -5.14.

Take C15U U81G C82G A119G G120U C123A: the “polymerase ribozyme fitness (log ratio)” value is -0.519.

In the case of C12G G65A, the “polymerase ribozyme fitness (log ratio)” value was -3.6.

For the variant A43U G63C G117C, the “polymerase ribozyme fitness (log ratio)” value was -4.52.

Consider G61U C101A U125C, for which the “polymerase ribozyme fitness (log ratio)” value was -4.61.

With C40G A91C C98U, the “polymerase ribozyme fitness (log ratio)” value was -5.6.

A95C G120U: the “polymerase ribozyme fitness (log ratio)” value is -0.765.

On to A46U C72U U96A G120A, for which the “polymerase ribozyme fitness (log ratio)” value is -1.15.

Turning to G10U G17A, the “polymerase ribozyme fitness (log ratio)” value was -3.07.

On to A5C A118U U133A, for which the “polymerase ribozyme fitness (log ratio)” value is -1.14.

On to C8A G36U C76A U131C, for which the “polymerase ribozyme fitness (log ratio)” value is -1.09.

Regarding C49A C62G C76U, the “polymerase ribozyme fitness (log ratio)” value was -5.79.

Turning to A2G U9G G10U A27C C56G, the “polymerase ribozyme fitness (log ratio)” value is -3.86.

Consider C53U U67G C124G, for which the “polymerase ribozyme fitness (log ratio)” value was -7.17.

For G47U G60A G117A, the “polymerase ribozyme fitness (log ratio)” value is -3.41.

As to A5U A26G, the “polymerase ribozyme fitness (log ratio)” value is -2.87.

In the case of U7G C8U A29U C40A G48A, the “polymerase ribozyme fitness (log ratio)” value was -2.66.

In the case of G45U A100C A111G A121G U125C, the “polymerase ribozyme fitness (log ratio)” value is -1.08.

As for C15G A90C, the “polymerase ribozyme fitness (log ratio)” value was -3.94.

For C12G G42A G52A C62U C104A, the “polymerase ribozyme fitness (log ratio)” value was -5.44.

As to U67A G69U, the “polymerase ribozyme fitness (log ratio)” value was -5.08.

Turning to G52C C72A C94U G128A, the “polymerase ribozyme fitness (log ratio)” value is -2.33.

For the variant C56G G63C C114G, the “polymerase ribozyme fitness (log ratio)” value is -5.3.

With C56U C97U U106A G127U, the “polymerase ribozyme fitness (log ratio)” value was -0.714.

On to C15G A66G G69C C89U, for which the “polymerase ribozyme fitness (log ratio)” value was -5.99.

Take A37U A100C A103U: the “polymerase ribozyme fitness (log ratio)” value is -5.74.

Take G45A C102U G120C: the “polymerase ribozyme fitness (log ratio)” value was -1.47.

For the variant U81A G127U, the “polymerase ribozyme fitness (log ratio)” value was -2.76.

G10C G71A G113C: the “polymerase ribozyme fitness (log ratio)” value is -4.81.

As for C3U C72U, the “polymerase ribozyme fitness (log ratio)” value is -0.173.

C49G C101A: the “polymerase ribozyme fitness (log ratio)” value was -1.3.

As for C64A A66C U109C, the “polymerase ribozyme fitness (log ratio)” value was -6.74.

For the variant U7G C73U U78A, the “polymerase ribozyme fitness (log ratio)” value stood at 0.634.

Take C8U C31U C53U: the “polymerase ribozyme fitness (log ratio)” value was -4.36.

On to C31U G127C, for which the “polymerase ribozyme fitness (log ratio)” value was -3.6.

For A18U C79U C101G, the “polymerase ribozyme fitness (log ratio)” value was -4.83.

In the case of A5U G10A C15A C70U C79A C94U C99U C124U, the “polymerase ribozyme fitness (log ratio)” value is -7.66.

With A5C A24U, the “polymerase ribozyme fitness (log ratio)” value is -5.29.

With G60C C102U G128A, the “polymerase ribozyme fitness (log ratio)” value is -4.97.

On to G58C U59C A83C U106A, for which the “polymerase ribozyme fitness (log ratio)” value was -0.577.

For the variant U14G C64U C98U, the “polymerase ribozyme fitness (log ratio)” value was -4.29.

On to C20G A83C A100U G120A U130C, for which the “polymerase ribozyme fitness (log ratio)” value was -5.79.

For the variant C11U C15G A27G C94G U109C G110A A119U G120A, the “polymerase ribozyme fitness (log ratio)” value was -7.62.

Consider C70U A103U G120C U131C, for which the “polymerase ribozyme fitness (log ratio)” value is -5.74.

A2C G39U: the “polymerase ribozyme fitness (log ratio)” value was -2.12.

Regarding U7G U9A G120C, the “polymerase ribozyme fitness (log ratio)” value was determined as 1.99.

With G71U U116C, the “polymerase ribozyme fitness (log ratio)” value was -0.726.

Consider A83C C97A, for which the “polymerase ribozyme fitness (log ratio)” value is -3.66.

Take U21G C56U: the “polymerase ribozyme fitness (log ratio)” value is -1.08.

As to G25U C80A C88U A121C, the “polymerase ribozyme fitness (log ratio)” value was -6.51.

On to G48U C72A C97G, for which the “polymerase ribozyme fitness (log ratio)” value is -5.25.

In the case of C82U G120U, the “polymerase ribozyme fitness (log ratio)” value was determined as 0.312.

As for C11U G48A U59A G69U C88G G135U, the “polymerase ribozyme fitness (log ratio)” value was -3.32.

In the case of G36C G47A C56A G71A U78G C115U A118G, the “polymerase ribozyme fitness (log ratio)” value was -6.68.

Consider G60A A84C, for which the “polymerase ribozyme fitness (log ratio)” value is -0.0134.

As to A6C U78C A100U G120A U131C, the “polymerase ribozyme fitness (log ratio)” value was -0.187.

For the variant C34G A90C U112G, the “polymerase ribozyme fitness (log ratio)” value was -6.02.
